Our source for the EC50 values is patent publication US20230212294A1.

Assay [1] concerns the target Human B7-H3-his (human) (UniProt Q5ZPR3). The assay is described as follows: ELISA, human B7-H3 at protein level (second run).
Assay [2] has the same target. The assay is described as follows: ELISA, antigen coated at 2 µg/mL.

B1: IL-P6-D06 (antibody, V domains shown)
VH: QVQLQQSGPELVRPGVSVKISCKGSGYTFTDYAIHWVKQSHAKSLEWIGVINTYSGNTNYNQKFKGRATMTVDKSSSTAYMELARLTSEDSAIYFCARGVTYGSGYPYWYFDVWGAGTTVTVSS
VL: DIVMTQSQKFMSTSVGDRVSVTCKASQNVGTNVAWYQQKPGQSPKALIYSASYRYSGVPDRFTGSGSGTDFTLTISNVQSEDLAEYFCQQYNSYPYTFGGGTKLEIK
For B1, the values for the EC50 in assay [1] and in assay [2] were 0.233 µg/mL and 0.174 µg/mL, respectively.

B2: IL-P5-C06 (antibody, V domains shown)
VH: QVQLQQSGPELVRPGVSVKISCKGSGYTFTDYAIHWAKQGHAKSLEWIGIINTYNGNSNYNQNFKGKATMTVDKSSSTAYMELTRLTSEDSAIYYCARNYGSSFNWYFDVWGQGTTLTVSS
VL: DIVLTQSPTTMAASPGEKITITCSASSSISSNYLHWYQQKPGFSPKLLIYSTSNLASGVPARFSGSGSGTSYSLTISSVEAEDAATYYCQQYSGYPLTFGAGTKLELK
Turning to B2, the results for the EC50 in assay [1] and in assay [2] were 0.302 µg/mL and 0.177 µg/mL, respectively.
